Laboratory results: patent US20240209096A1 (INVETX, published 2024)
Numbering of substitutions follows the chain as printed. In names and notes the source's numbering stands.

T1: canine FcRn (soluble large subunit p51 isoform X2 with 6xHis-tag, co-expressed with canine … (canine))
T1 construct: Heterodimer made by co-expression in CHO cells, purified on HISTRAP FF, >95% pure by SEC; Both entries hold a 19-residue signal peptide at the N-terminus that should be removed (residues 1-19); also called FcRn complex
T1 chain: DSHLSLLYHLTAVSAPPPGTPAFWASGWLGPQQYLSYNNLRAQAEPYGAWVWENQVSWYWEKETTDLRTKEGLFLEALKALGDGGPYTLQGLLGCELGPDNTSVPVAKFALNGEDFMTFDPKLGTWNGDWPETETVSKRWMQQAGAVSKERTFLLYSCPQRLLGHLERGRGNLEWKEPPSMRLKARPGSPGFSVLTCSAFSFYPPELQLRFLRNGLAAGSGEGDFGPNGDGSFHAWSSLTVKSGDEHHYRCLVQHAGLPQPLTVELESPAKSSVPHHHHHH
T1 b2m: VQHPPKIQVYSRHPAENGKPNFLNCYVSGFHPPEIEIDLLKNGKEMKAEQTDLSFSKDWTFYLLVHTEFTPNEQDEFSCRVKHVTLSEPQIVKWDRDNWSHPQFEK

B1: IgG with canine IgGB Fc variant L252Y (antibody)
heavy: EVQLVESGGDLVAPSQSLSITCTVSGMSLTSNSISWVRQPPGRGLEWLGTIWSNGGTDYTDAVKGRFTISRDNAKNTVYLQMNSLRAEDTAMYYCAQIYYYDADYLHWYFDFWGQGTLVTVSSASTTAPSVFPLAPSCGSTSGSTVALACLVSGYFPEPVTVSWNSGSLTSGVHTFPSVLQSSGLYSLSSMVTVPSSRWPSETFTCNVAHPASKTKVDKPVPKRENGRVPRPPDCPKCPAPEAAGGPSVFIFPPKPKDTLYIARTPEVTCVVVDLDPEDPEVQISWFVDGKQMQTAKTQPREEQFNGTYRVVSVLPIGHQDWLKGKQFTCKVNNKALPSPIERTISKARGQAHQPSVYVLPPSREELSKNTVSLTCLIKDFFPPDIDVEWQSNGQQEPESKYRTTPPQLDEDGSYFLYSKLSVDKSRWQRGDTFICAVMHEALHNHYTQESLSHSPG
light: EIVMTQSPASLSASQEEKVTITCRASEGISNNLAWYQQKPGQAPKLLIHATSSLQTGVPSRFSGSGSGTDFTLTISSLQPEDFATYYCQQGYQFPLTFGQGTKVEIKRNDAQPAVYLFQPSPDQLHTGSASVVCLLNSFYPKDINVKWKVDGVIQDTGIQESVTEQDKDSTYSLSSTLTMSSTEYLSHELYSCEITHKSLPSTLIKSFQRSECQRVD
notes: Full chains; canine IgGB constant domain with MALA mutations; variable domains of WO 2023/97275
B2: IgG with canine IgGB Fc variant N434H, T286W (antibody)
heavy: B1 heavy with Y261L, T295W, N445H
light: B1 light
notes: as for B1
B3: IgG with canine IgGB Fc variant L252Y, A426L (antibody)
heavy: B1 heavy with A437L
light: B1 light
notes: as for B1
B4: IgG with canine IgGB Fc variant N434H, A426W (antibody)
heavy: B1 heavy with Y261L, A437W, N445H
light: B1 light
notes: as for B1
B5: IgG with canine IgGB Fc variant N434H, T286L (antibody)
heavy: B1 heavy with Y261L, T295L, N445H
light: B1 light
notes: as for B1
B6: IgG with canine IgGB Fc variant L252Y, T286L (antibody)
heavy: B1 heavy with T295L
light: B1 light
notes: as for B1
B7: IgG with canine IgGB Fc variant L252Y, A426H (antibody)
heavy: B1 heavy with A437H
light: B1 light
notes: as for B1
B8: IgG with canine IgGB Fc variant N434H, A426L (antibody)
heavy: B1 heavy with Y261L, A437L, N445H
light: B1 light
notes: as for B1
B9: IgG with canine IgGB Fc variant N434H, A426Y (antibody)
heavy: B1 heavy with Y261L, A437Y, N445H
light: B1 light
notes: as for B1
B10: IgG with canine IgGB Fc variant N434H (antibody)
heavy: B1 heavy with Y261L, N445H
light: B1 light
notes: as for B1
B11: IgG with canine IgGB Fc variant N434H, T286F (antibody)
heavy: B1 heavy with Y261L, T295F, N445H
light: B1 light
notes: as for B1
B12: IgG with canine IgGB Fc variant N434H, A426F (antibody)
heavy: B1 heavy with Y261L, A437F, N445H
light: B1 light
notes: as for B1
B13: IgG with canine IgGB Fc variant L252M (antibody)
heavy: B1 heavy with Y261M
light: B1 light
notes: as for B1
B14: IgG with canine IgGB Fc variant L252M, T286W (antibody)
heavy: B1 heavy with Y261M, T295W
light: B1 light
notes: as for B1
B15: IgG with canine IgGB Fc variant L252Y, T286W (antibody)
heavy: B1 heavy with T295W
light: B1 light
notes: as for B1
B16: IgG with canine IgGB Fc variant L252M, T286L (antibody)
heavy: B1 heavy with Y261M, T295L
light: B1 light
notes: as for B1
B17: IgG with canine IgGB Fc variant L252M, A426Y (antibody)
heavy: B1 heavy with Y261M, A437Y
light: B1 light
notes: as for B1
B18: IgG with canine IgGB Fc variant L252Y, T286F (antibody)
heavy: B1 heavy with T295F
light: B1 light
notes: as for B1
B19: IgG with canine IgGB Fc variant L252M, T286F (antibody)
heavy: B1 heavy with Y261M, T295F
light: B1 light
notes: as for B1
B20: IgG with canine IgGB Fc variant L252M, T286Y (antibody)
heavy: B1 heavy with Y261M, T295Y
light: B1 light
notes: as for B1
B21: IgG with canine IgGB Fc variant L252M, A426H (antibody)
heavy: B1 heavy with Y261M, A437H
light: B1 light
notes: as for B1
B22: IgG with canine IgGB Fc variant L252M, A426L (antibody)
heavy: B1 heavy with Y261M, A437L
light: B1 light
notes: as for B1
B23: IgG with canine IgGB Fc variant L252Y, T286Y (antibody)
heavy: B1 heavy with T295Y
light: B1 light
notes: as for B1

Biological target: T1, canine FcRn (soluble large subunit p51 …)
Assay: SPR, IgG on protein L chip, FcRn in flow, pH 7.4, steady state fit
Method: (§1) The canine FcRn binding experiments at pH 5.9 and pH 7.4 were completed on a BIACORE™ T200 instrument. A Series S Protein L Sensor chip (Cytiva, Cat. No. BR29205137) was used to capture the antibody variants via the kappa (κ) light chain. The canine variants were captured onto the protein L chip at a flow rate of 10 μL/min for 60 seconds. Approximately 250 RUs of the variants were captured. For the low pH binding condition, 1×PBX-P+ (Cytiva, Cat. No. 28995084) was adjusted to pH 5.9. The canine FcRn was flowed over the sensor chip at 30 μL/min for 120 seconds contact time and 600 seconds dissociation time. Regeneration of the flow cells was completed by flowing over 10 mM glycine, pH 1.7 at 30 μL/min for 30 seconds. The data were evaluated by the BIACORE™ T200 Evaluation software (version 3.2.1) by fitting to a 1:1 kinetic interaction model.
A subset of the Fc variants was tested for binding to canine FcRn at pH 7.4. For these experiments, 1×PBX-P+ (Cytiva, Cat. No. 28995084) was adjusted to pH 7.4. […] In addition, the pH 7.4 data were evaluated by the BIACORE™ T200 Evaluation software (version 3.2.1) by fitting to steady state affinity model. The kinetic binding data for the variants at pH 7.4 along with the binding data at pH 5.9 for these variants are shown in Table 7 below.

Row | Kd [nM] | Binder
1 | 4440 | B1
2 | 2070 | B2
3 | 713 | B3
4 | 1790 | B4
5 | 3450 | B5
6 | 2620 | B6
7 | 388 | B7
8 | 2030 | B8
9 | 1050 | B9
10 | 5400 | B10
11 | 2370 | B11
12 | 1380 | B12

Biological target: T1, canine FcRn (soluble large subunit p51 …)
Assay: SPR, IgG on protein L chip, FcRn in flow, pH 5.9, kinetic data
Method: as §1

Row | Kd [nM] | koff [s⁻¹] | kon [M⁻¹ s⁻¹] | Binder
13 | 43.5 | 0.0491 | 1.13e+06 | B1
14 | 11.5 | 0.0321 | 2.78e+06 | B2
15 | 6.41 | 0.012 | 1.87e+06 | B3
16 | 14.5 | 0.0406 | 2.79e+06 | B4
17 | 21.3 | 0.0518 | 2.44e+06 | B5
18 | 18.2 | 0.0237 | 1.31e+06 | B6
19 | 3.76 | 0.00598 | 1.59e+06 | B7
20 | 18.9 | 0.0492 | 2.61e+06 | B8
21 | 10.9 | 0.0252 | 2.31e+06 | B9
22 | 55.3 | 0.097 | 1.75e+06 | B10
23 | 14.4 | 0.0361 | 2.52e+06 | B11
24 | 11.8 | 0.0296 | 2.5e+06 | B12

Biological target: T1, canine FcRn (soluble large subunit p51 …)
Assay: SPR, IgG on protein L chip, FcRn in flow, pH 5.9, 1:1 fit
Method: as §1

Row | Kd [nM] | koff [s⁻¹] | kon [M⁻¹ s⁻¹] | Binder
25 | 40.7 | 0.00335 | 82400 | B13
26 | 43.5 | 0.0491 | 1.13e+06 | B1
27 | 11.5 | 0.0321 | 2.78e+06 | B2
28 | 6.41 | 0.012 | 1.87e+06 | B3
29 | 64.5 | 0.0912 | 1.42e+06 | B14
30 | 14.5 | 0.0406 | 2.79e+06 | B4
31 | 21.3 | 0.0518 | 2.44e+06 | B5
32 | 18.2 | 0.0237 | 1.31e+06 | B6
33 | 9.82 | 0.0203 | 2.07e+06 | B15
34 | 90 | 0.111 | 1.23e+06 | B16
35 | 3.76 | 0.00598 | 1.59e+06 | B7
36 | 18.9 | 0.0492 | 2.61e+06 | B8
37 | 10.9 | 0.0252 | 2.31e+06 | B9
38 | 57.4 | 0.0581 | 1.01e+06 | B17
39 | 10.8 | 0.0193 | 1.79e+06 | B18
40 | 55.3 | 0.097 | 1.75e+06 | B10
41 | 71.8 | 0.0937 | 1.31e+06 | B19
42 | 66.6 | 0.0822 | 1.24e+06 | B20
43 | 14.4 | 0.0361 | 2.52e+06 | B11
44 | 37 | 0.065 | 1.76e+06 | B21
45 | 102 | 0.111 | 1.09e+06 | B22
46 | 11.8 | 0.0296 | 2.5e+06 | B12
47 | 10.2 | 0.018 | 1.76e+06 | B23
